Test [1] addresses T1, human ADK (adenosine kinase), recombinant (human, UniProt P55263 2-362).
T1 construct: Bought protein (Novus Biologicals NBP1-44382 or R&D Systems 8024-AK-025); It was fluorescently labelled in MST
Briefly: MST, ADK labelled, antibody unlabelled. The procedure:
To perform this technique, proteins were desalted and buffer exchanged into PBS prior to labeling. Desalting was performed using Zeba Spin Desalting Columns (Thermo Scientific, product number 89882, 0.5 ml volume) in a volume of 0.1 ml according to the manufacturer's instructions. Human NDPK-A (Acro Biosystems, product number NM1-H5147) was prepared in PBS to a stock concentration of 0.4 mg/ml. Human ADK (Novus Biologicals, product number NBP1-44382 or R&D Systems, product number 8024-AK-025) was purchased at a stock concentration of 0.5 mg/ml and buffer exchanged into PBS. Protein concentration used for labeling was 20 uM. Experiments were conducted independently with each of NDPK and ADK labeled with each kit (i.e., experiments were performed with lysine-labeled, cysteine-labeled, and His-labeled versions of each protein to confirm the site of labeling was not influencing detected interaction). Labeling kits were: Monolith Protein Labeling Kit RED-NETS (Amine Reactive; Product number MO-L001), Monolith Protein Labeling Kit RED-MALEIMIDE (Cysteine Reactive; Product number: MO-L004), and Monolith His-Tag Labeling Kit RED-tris-NTA (Product number: MO-L008). […] Concentration of labeled proteins ranged from 12 nM to 20 nM, as determined by MST quantification to obtain a fluorescence intensity of ˜350 from each capillary tube. […]

Test [2] deals with T2, human NDPK-A (nucleoside diphosphate kinase A), full-length recombinant (human, UniProt P15531 2-152).
T2 construct: Bought protein (Acro Biosystems NM1-H5147); It was fluorescently labelled (lysine, cysteine or His-tag dye) in MST; also called nm23
Briefly: MST, NDPK labelled, antibody unlabelled. The procedure:
(§1) Human NDPK-A (Acro Biosystems, product number NM1-H5147) was prepared in PBS to a stock concentration of 0.4 mg/ml. Human ADK (Novus Biologicals, product number NBP1-44382 or R&D Systems, product number 8024-AK-025) was purchased at a stock concentration of 0.5 mg/ml and buffer exchanged into PBS. Protein concentration used for labeling was 20 uM. Experiments were conducted independently with each of NDPK and ADK labeled with each kit (i.e., experiments were performed with lysine-labeled, cysteine-labeled, and His-labeled versions of each protein to confirm the site of labeling was not influencing detected interaction). […] Concentration of labeled proteins ranged from 12 nM to 20 nM, as determined by MST quantification to obtain a fluorescence intensity of ˜350 from each capillary tube. […]
(§2) To further confirm the formation of the proposed complex, GST-tagged NDPK (GST-NDPK) was generated and immunoprecipitation experiments were performed to investigate the interaction of each proposed component with NDPK. Interaction between all three components of the proposed complex, as well as with the complex and a-Ab (FIG. 4M) were readily identified.

Another test addresses T3, NDPK-A peptide 5 (human).
T3 peptide: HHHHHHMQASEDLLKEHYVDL
Briefly: MST, His-tag-labelled peptide against a-Ab.

In a further test the target is T4, NDPK-A peptide 6 (human).
T4 peptide: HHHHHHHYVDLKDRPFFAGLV
Briefly: MST, His-tag-labelled peptide against a-Ab.

A further test deals with T5, NDPK-A peptide 7 (human).
T5 peptide: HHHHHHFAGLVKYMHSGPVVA
Briefly: MST, His-tag-labelled peptide against a-Ab.

A further test has as its target T6, NDPK-A peptide 9 (human).
T6 peptide: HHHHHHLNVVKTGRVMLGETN
Briefly: MST, His-tag-labelled peptide against a-Ab.

The target of a further test is T7, NDPK-A peptide 10 (human).
T7 peptide: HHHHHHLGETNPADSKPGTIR
As to the kind of experiment: MST, His-tag-labelled peptide against a-Ab.

The target in the next test is T8, NDPK-A peptide 11 (human).
T8 peptide: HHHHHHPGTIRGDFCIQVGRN
As to the kind of experiment: MST, His-tag-labelled peptide against a-Ab.

The target of the next test is T9, NDPK-A peptide 12 (human).
T9 peptide: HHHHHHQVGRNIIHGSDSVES
Briefly: MST, His-tag-labelled peptide against a-Ab.

The target in a further test is T10, NDPK-A peptide 13 (human).
T10 peptide: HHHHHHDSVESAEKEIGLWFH
Briefly: MST, His-tag-labelled peptide against a-Ab.

The next test deals with T11, NDPK-A peptide 14 (human).
T11 peptide: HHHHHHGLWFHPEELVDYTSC
As to the kind of experiment: MST, His-tag-labelled peptide against a-Ab.

For another test, the target named is T12, NDPK-A peptide 15 (human).
T12 peptide: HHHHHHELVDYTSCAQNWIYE
As to the kind of experiment: MST, His-tag-labelled peptide against a-Ab.

The target in another test is T13, NDPK-A peptide 1 (human).
T13 peptide: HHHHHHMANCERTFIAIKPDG
As to the kind of experiment: MST, His-tag-labelled peptide against a-Ab.

The target in another test is T14, NDPK-A peptide 4 (human).
T14 peptide: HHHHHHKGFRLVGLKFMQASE
Briefly: MST, His-tag-labelled peptide against a-Ab.

A further test has as its target T15, NDPK-A peptide 8 (human).
T15 peptide: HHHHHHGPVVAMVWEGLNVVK
As to the kind of experiment: MST, His-tagged peptide; column head prints 'Binding Affinity (Ka)'.

The next test deals with T16, NDPK-A peptide 2 (human).
T16 peptide: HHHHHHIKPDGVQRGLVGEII
The test is described as above.

Another test addresses T17, NDPK-A peptide 3 (human).
T17 peptide: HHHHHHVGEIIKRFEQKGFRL
The description is as above.

In test [3] the target is T2, human NDPK-A (nucleoside diphosphate …). Briefly: MST, His-tagged full-length NDPK-A; column head prints 'Binding Affinity (Ka)'.
The target is the same in test [4]. Briefly: MST, NDPK labelled, FABP4 unlabelled. The procedure:
as §1, §2

For test [5], the target named is T1, human ADK (adenosine kinase), …. As to the kind of experiment: MST, one-to-one recombinant proteins, ADK labelled. The procedure: Additionally, one-to-one recombinant protein interaction assays were performed using Microscale Thermophoresis (MST) to independently validate the interactions between each of the proposed complex components. MST is a technology for the interaction analysis of biomolecules. MST is the directed movement of particles in a microscopic temperature gradient. Any change of the hydration shell of biomolecules due to changes in their structure/conformation results in a relative change of the movement along the temperature gradient and is used to determine binding affinities. MST allows measurement of interactions directly in solution without the need of immobilization to a surface (immobilization-free technology).
To perform this technique, proteins were desalted and buffer exchanged into PBS prior to labeling. […] Experiments were conducted independently with each of NDPK and ADK labeled with each kit (i.e., experiments were performed with lysine-labeled, cysteine-labeled, and His-labeled versions of each protein to confirm the site of labeling was not influencing detected interaction). […] Concentration of labeled proteins ranged from 12 nM to 20 nM, as determined by MST quantification to obtain a fluorescence intensity of ˜350 from each capillary tube. […]

In general, Kd refers to the constant that tells how readily two partners part at equilibrium.

T2 sequence (P15531 other isoform, or with tags, fused parts or gaps limits assumed): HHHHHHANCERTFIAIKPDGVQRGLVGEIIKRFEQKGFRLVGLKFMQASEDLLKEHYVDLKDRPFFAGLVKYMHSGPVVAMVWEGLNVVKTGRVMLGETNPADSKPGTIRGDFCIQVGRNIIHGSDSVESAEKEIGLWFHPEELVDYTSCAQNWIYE
T1 sequence (P55263 2-362 limits assumed): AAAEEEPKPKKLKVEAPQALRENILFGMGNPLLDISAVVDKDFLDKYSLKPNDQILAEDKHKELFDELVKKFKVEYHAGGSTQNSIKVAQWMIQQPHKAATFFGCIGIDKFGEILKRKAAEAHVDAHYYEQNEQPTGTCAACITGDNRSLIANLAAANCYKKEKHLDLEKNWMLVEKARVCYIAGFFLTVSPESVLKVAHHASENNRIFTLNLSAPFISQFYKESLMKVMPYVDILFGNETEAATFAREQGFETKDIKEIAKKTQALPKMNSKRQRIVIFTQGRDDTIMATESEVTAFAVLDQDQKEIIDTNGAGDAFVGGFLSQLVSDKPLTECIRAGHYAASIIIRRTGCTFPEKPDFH

B1: CA33 (a-Ab) monoclonal antibody (antibody)
heavy: QSVEESGGRLVTPGTPLTLTCTVSGFSLSTYYMSWVRQAPGKGLEWIGIIYPSGSTYCASWAKGRFTISKASTTVDLKITSPTTEDTATYFCARPDNDGTSGYLSGFGLWGQGLVTVSSAKTTPPSVYPLAPGSAAQTNSMVTLGCLVKGYFPEPVTVTWNSGSLSSGVHTFPAVLQSDLYTLSSSVTVPSSTWPSETVTCNVAHPASSTKVDKKIVPRDC
light: DVVMTQTPASVSEPVGGTVTIKCGASEDISRYLVWYQQKPGQPPKRLIYKASTLASGVPSRFKGSGSGTDFTLTISDLECDDAATYYCQCTYGTYAGSFFYSFGGGTEVVVERTDAAPTVSIFPPSSEQLTSGGASVVCFLNNFYPKDINVKWKIDGSERQNGVLNSWTDQDSKDCTYSMSSTLTLTKDEYERHNSYTCEATHKTSTSPIVKSFNRNEC
notes: Described as a monoclonal antibody; also called active antibody
Consider B1, for which the Kd in [1] is around 1900 nM; in test [2] it was around 150 nM; with NDPK-A peptide 8 it was 69.6 nM; with NDPK-A peptide 2, 15900 nM; with NDPK-A peptide 3, 8980 nM; in [3], 116 nM. Moreover, the binding result with NDPK-A peptide 5, with NDPK-A peptide 6, with NDPK-A peptide 7, in the test with NDPK-A peptide 9, with NDPK-A peptide 10 and with NDPK-A peptide 11 was “no binding” each time. For the same molecule, the binding result with NDPK-A peptide 12, with NDPK-A peptide 13, in the test with NDPK-A peptide 14, in the test with NDPK-A peptide 15, with NDPK-A peptide 1 and with NDPK-A peptide 4 was “no binding” throughout.

B2: recombinant human FABP4 (fatty acid binding protein 4) (other)
chain: CDAFVGTWKLVSSENFDDYMKEVGVGFATRKVAGMAKPNMIISVNGDVITIKSESTFKNTEISFILGQEFDEVTADDRKVKSTITLDGGVLVHVQKWDGKSTTIKRKREDDKLVVECVMKGVTSTRVYERA
notes: Recombinant human FABP4 produced in-house; also called aP2; hormonal FABP4
As for B2, the Kd in [4] is around 700 nM; in test [5], around 7 nM.
